From US20190119379A1 (BAYLOR COLLEGE OF MEDICINE, published 2019) come the findings set out here.

The test addresses T1, human CD47 on OV10 315 cells (human, UniProt Q08722 19-323).
T1 construct: whole, on cells
Nature of the test: FACS for Fc on YFP-negative OV10 315 cells 24 h after infection with SIRPα-Fc-VV.

T1 sequence (Q08722 19-323): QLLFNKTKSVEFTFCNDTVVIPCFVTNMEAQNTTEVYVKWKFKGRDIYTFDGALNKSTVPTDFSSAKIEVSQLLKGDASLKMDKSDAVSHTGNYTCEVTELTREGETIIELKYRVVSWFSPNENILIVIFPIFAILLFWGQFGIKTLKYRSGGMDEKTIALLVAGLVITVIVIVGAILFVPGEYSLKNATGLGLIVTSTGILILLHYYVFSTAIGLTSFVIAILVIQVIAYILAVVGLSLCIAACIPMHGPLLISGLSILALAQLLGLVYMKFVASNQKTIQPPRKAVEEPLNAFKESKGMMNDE

B1: SIRPα-IgG4 Fc with derivative (CV1) of SIRPα ectodomain (Fc fusion)
chain: EEELQIIQPDKSVLVAAGETATLRCTITSLFPVGPIQWFRGAGPGRVLIYNQRQGPFPRVTTVSDTTKRNNMDFSIRIGNITPADAGTYYCIKFRKGSPDDVEFKSGAGTELSVRAKPSAAAPPCPPCPAPEFLGGPSVFLFPPKPKDTLMISRTPEVTCVVVDVSQEDPEVQFNWYVDGVEVHNAKTKPREEQFNSTYRVVSVLTVLHQDWLNGKEYKCKVSNKGLPSSIEKTISKAKGQPREPQVYTLPPSQEEMTKNQVSLTCLVKGFYPSDIAVEWESNGQPENNYKTTPPVLDSDGSFFLYSRLTVDKSRWQEGNVFSCSVMHEALHNHYTQKSLSLSPGK
notes: Secreted by tumor cells transduced with the lentiviral vector pCDH.CMV.SIRPα-Fc.EF1.GFPpuro or infected with SIRPα-Fc-VV; It was never purified; also called SIRPα-Fc; SIRPα-FC
For B1, the binding result is “binds”.
